Positions count from the first letter of the chain named.
T1: hepatitis A virus (HAV) full particle, genotype TZ84 (HAV IA genotype) (hepatitis A virus, genotype TZ84 (HAV …))
T1 chain 1: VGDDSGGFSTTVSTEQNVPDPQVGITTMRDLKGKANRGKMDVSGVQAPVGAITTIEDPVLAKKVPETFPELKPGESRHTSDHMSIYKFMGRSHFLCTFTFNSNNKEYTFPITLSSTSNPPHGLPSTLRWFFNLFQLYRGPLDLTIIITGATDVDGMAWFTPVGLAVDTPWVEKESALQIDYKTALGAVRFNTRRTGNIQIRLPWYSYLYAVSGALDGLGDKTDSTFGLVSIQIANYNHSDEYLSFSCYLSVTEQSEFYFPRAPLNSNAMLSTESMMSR
T1 chain 2: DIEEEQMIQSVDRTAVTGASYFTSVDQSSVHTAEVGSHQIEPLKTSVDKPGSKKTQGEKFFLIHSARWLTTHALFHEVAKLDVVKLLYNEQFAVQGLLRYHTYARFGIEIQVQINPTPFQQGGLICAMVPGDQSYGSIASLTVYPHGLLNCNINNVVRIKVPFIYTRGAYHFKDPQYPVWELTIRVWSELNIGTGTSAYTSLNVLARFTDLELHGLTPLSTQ
T1 chain 3: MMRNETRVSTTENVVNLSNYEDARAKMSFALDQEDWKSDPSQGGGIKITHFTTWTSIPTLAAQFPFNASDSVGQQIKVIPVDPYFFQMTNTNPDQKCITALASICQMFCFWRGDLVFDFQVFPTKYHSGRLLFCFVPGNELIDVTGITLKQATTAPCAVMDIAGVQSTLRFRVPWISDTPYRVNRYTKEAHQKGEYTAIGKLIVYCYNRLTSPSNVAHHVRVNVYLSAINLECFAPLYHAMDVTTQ

B1: F4 Fab (fragment of antigen binding of the neutralizing monoclonal antibody F4) (Fab, V domains shown)
VH: EVKLVESGGGLVKPGGSLKLSCAASLFTHNNYGMSWVRQTPEKRLEWVATINSTASYTYYPDSVKGRFTISRDNAKNTLYLQMSSLRSGDTAIYYCARKNDTFSDYYFDYWGQGTTLTVSS
VL: DIVLTQSPAIMSASPGERVTMTCSAHVSTDYMHWYQQKSGTSPKRWIYDTSKLASTVPDRFSGSGSGTSYSLTISSMEAEDAATYYCQQWNNNAYTYGGGTKLEIK
B2: F9 Fab (fragment of antigen binding of the neutralizing monoclonal antibody F9) (Fab, V domains shown)
VH: EVKLVESGGGLVKPGGSLKLSCAASAFTITTYGMSWVRQTPEKRLEWVATITAGGSYTYYPDSVKGRFTISRDNAKNTLYLQMSSLRSGDTAMYYCARKVTSVAEYYFDYWGQGTTLTVSS
VL: DIVLTQSPAIMSASPGEKVTMTCSATSGLSYIHWYQQKSGTSPKRWIYDTSKLAFGAPARFSGSGSGTSYSLTISSMEAEDAATYYCQQWDVNPYTFGGGTKLEIK
B3: F7 Fab (fragment of antigen binding of the neutralizing monoclonal antibody F7) (Fab, V domains shown)
VH: EVKLVESGGGLVKPGGSLKLSCAASIHTFNCYGMSWVRQTPEKGLEWVATIDAASSYTYYPDSVKGRFTISRDNAKNTLYLQMSSLRSGDTAMYYCARRDNTTAQYYFDYWGQGTTLTVSS
VL: B2 VL with T26A, G28S, L29V, K52R, A57V, A59T, D91S, V92T
B4: R10 Fab (fragment of antigen binding of the neutralizing monoclonal antibody R10) (Fab, V domains shown)
VH: EVKLVESGGGSVKPGGSLKLSCAASGFSFSTYGMSWVRQTPEKRLEWVATISGGGGYTYYPDSVKGRFTISRDNARNILYLQMSSLRSGDTAMYYCARRVTTVAEYYFDYWGQGTTLTVSS
VL: DIVLTQSPAIMSASPGEKVTMTCSASSSVSYIHWYQQKSGTSPKRWIYDTSRLAFGVPGRFSGSGSGTSYSLTISSMEAEDAATYYCQQWSSNYTFGGGTNLEIK
B5: F6 Fab (fragment of antigen binding of the neutralizing monoclonal antibody F6) (Fab, V domains shown)
VH: EVKLVESGGGLVKPGGSLKLSCAASMYNFQHYGMSWVRQTPEKRLEWVATIQTNATYTYYPDSVKGRFTISRDNARNILYLQMSSLRSGDTAMYYCARRDNIECHYYFDYWGQGTTLTVSS
VL: DIVLTQSPAIMSASPGERVTMTCSAHQYVSYMHWYQQKSGTSPKRWIYDTSRLADAIPQRFSGRGSGTSYSLTISSMEAEDAATYYCQQWQSNPYTFGGGTKLEIK

Target: T1, hepatitis A virus (HAV) full particle, …
Assay: SPR

Row | Binder | koff
1 | B1 | 0.000252 s⁻¹
2 | B2 | 0.000537 s⁻¹
3 | B3 | 0.000743 s⁻¹
4 | B4 | 0.000528 s⁻¹
5 | B5 | 0.000134 s⁻¹

Target: T1, hepatitis A virus (HAV) full particle, …
Assay: SPR
Remark: another data set of the same source

Row | Binder | Kd
6 | B1 | 5.14 nM
7 | B2 | 7.18 nM
8 | B3 | 7.1 nM
9 | B4 | 8.13 nM
10 | B5 | 2.19 nM
